According to patent US20240398899A1 (priority 2021, published 2024):
Values joined by “and” are separate entries in the source; they are usually repeats but may differ in a detail not shown here. Equal entries are not always repeated. Where two headings read alike, the source gives them in different places.

Columns and labels:
Swiss albino mice = assay: Passive avoidance test, scopolamine induced dementia; type: in vivo, Mus musculus (Swiss Albino)
Protocol: Required amount of recombinant lectin protein having SEQ ID NO: 1 was diluted in sterile Tris Buffered Saline (TBS) to achieve desired final concentration, i.e 0.1 mg/mL, 0.05 mg/mL, 0.025 mg/mL, at the doses of 0.5 mg/kg, 0.25 mg/kg and 0.125 mg/kg respectively. Formulation was prepared fresh daily.
TBS buffer and 0.5% CMC were used as a vehicle for preparation of test item, recombinant Lectin having SEQ ID NO: 1 and reference item formulation, respectively Male Mus musculus (Swiss Albino) aged between 8-10 weeks procured from GENTOX Bio services Pvt Ltd, Hyderabad. Animals were classified into 6 groups and acclimatized for two weeks. Animals were identified by cage labelling and tail marking and were randomized on the basis of their body weight.
(§1) Healthy male Swiss albino mice (n=48) were selected and randomized based on body weight (n=8 per Group) into 6 groups as mentioned in table no-1. The control group G1 was treated intravenously with vehicle daily till the experiment completion. Group G2 was considered as negative control and treated with vehicle. […] Group G4, G5 &G6 animals were treated with the test item recombinant lectin protein having SEQ ID NO: 1 at the dose of 0.5 mg/kg, 0.25 mg/kg and 0.125 mg/kg, respectively. All the test items were given intravenously (i.v) daily at the dose volume of 5 ml/kg for 14 Days. The body weight was recorded daily throughout the experimental period. […] One hour after the last dose of test items (on Day 14) all the animals were injected with scopolamine hydrobromide at the dose of 2.5 mg/kg, i.p., except the normal control group G1. Passive avoidance test was conducted 30 min after scopolamine injection.
This learning and memory test were performed in two chambers, which has square boxes, identical size, juxtaposed as illuminated and dark. A lamp was placed above one chamber for illumination. Each test involved two separate trials, a training trial and a test trial.
For the training trial, the mice were initially placed in the illuminated chamber. When the mice entered the dark chamber, an electrical shock (0.5 mA) for 3 sec. was delivered through stainless steel rods. The latency times once the mice entered from light compartment to the dark compartment was recorded using in-build timer. A test trial was performed 24 h following the training trial, and latency times to re-enter the dark chamber was measured up to 5 min

neuronal cells (pc12) = assay: Neurite formation against MPP+ induced damage; type: cell-based, rat; details: NGF (200 ng/ml) + MPP (100 μM)
Protocol: Cells were counted using haemocytometer and plated in 24-well plates at the densities corresponding to 1×10^4 cells/well/500 μl of the growth medium. The cells were then incubated for 48 h in 5% CO2 incubator at 37° C. Effect of Recombinant Lectin having SEQ ID NO: 1 on neurite formation was evaluated in both basal and MPP+ damage induced model.
The percent protection in neurite formation against MPP+ induced damage was determined as follows:
[formula] • Where, • A=No of neurites in Cells treated with NGF+SEQ ID NO: 1+MPP+ • B=No of neurites in Cells treated with NGF+MPP+ • C=No of Neurites Cells treated with NGF alone

SH-SY5Y neuronal cells = assay: Annexin-V staining of apoptotic cells against MPP+ iodide damage; type: cell-based, human; details: MPP+ iodide 1 mM; for % Decrease in Apoptotic cells (wrt MPP + iodide): Annexin
Protocol: After 24 h of treatment, cells were exposed to damage (MPP+ iodide 1 mM) for 24 h. […] Untreated cells were included as control. Cells treated with Deprenyl served as positive control. After treatment, cells were harvested by trypsinization and processed for Annexin V assay as follows: Cell were gently harvested into pre-labeled sterile centrifuge tubes and centrifuged at 300×g for 5-7 min. After 24 h of treatment, cells were exposed to damage (MPP+ iodide 1 mM) for 24 h. Cells treated with MPP+ iodide alone were included as Control. Untreated cells were included as negative control. Cells treated with Deprenyl served as positive control. After treatment, cells were harvested by trypsinization and processed for Annexin V assay as follows: Cell were gently harvested into pre-labelled sterile centrifuge tubes and centrifuged at 300×g for 5-7 min. Supernatant were discarded and the pellet was resuspended in 200 μl of fresh culture medium. 100 μl of cell suspension was transferred into pre-labeled sterile centrifuge tubes. 100 μl of Annexin-V reagent was added to each tube and incubated for 30 min at RT in dark. Cells stained for Annexin-V were then transferred into 96-well plates and acquired on flow cytometer (Guava technologies). Percentage of Annexin-V positive cells was determined.
Percent inhibition in apoptotic cells=[(% Annexin positive cells in MPP+iodide alone)−(% Annexin positive cells in Recombinant Lectin having SEQ ID NO:1+MPP+iodide)/% Annexin positive cells in MPP+iodide alone]*100

Acetylcholinesterase = details: mice; for brain Acetylcholine esterase Mean: scopolamine 2.5 mg/kg i.p.
Protocol: as §1
After passive avoidance test screening models of memory, the animals were sacrificed humanely. The whole brain was carefully removed from the skull and weighed. Brain was dissected into two portions
10% w/v brain homogenate (100 mg/mL) was prepared by homogenizing it in ice-chilled phosphate buffer. The homogenate was subsequently centrifuged using a refrigerated centrifuge at 3000 rpm for 10 min, and the supernatant was separated and used for the biochemical estimations.
Following biomarkers was estimated using ELISA kit as per manufacturer's instruction. • Brain NGF (Nerve Growth Factor), CUSABIO, Catalog No. CSB-E04684m • Acetylcholinesterase, CUSABIO, Catalog No. CSB-E17521m • TNF alpha, CUSABIO, Catalog No. CSB-E04741m

TNF alpha = assay: Brain biomarker ELISA, scopolamine induced dementia; type: in vivo, Mus musculus (Swiss Albino); details: scopolamine 2.5 mg/kg i.p., mice

B1: SEQ ID NO: 1: variant of the S. rolfsii lectin amino acid sequence (reported as Rec-2 in WO2010/095143) (protein)
chain: TYKITVRVYQTNPDAFFHPVEKTVWKYANGGTWTITDDQHVLTMGGSGTSGTLRFHADNGESFTATFGVHNYKRWCDIVTNLAADETGMVINQQYYSQKNREEARERQLSNYQVKNAKGRNFQIVYTEAEGNDLHANLIIG
Swiss albino mice; G4: 0.5 mg/kg i.v. qdx14, compared with G2 (scopolamine)
  % increase in Transfer Latency Time: 33.2%
Swiss albino mice; G4: 0.5 mg/kg i.v. qdx14, scopolamine 2.5 mg/kg i.p.
  Mean Transfer Latency Time: 85.26 s
Swiss albino mice; G4: 0.5 mg/kg i.v. qdx14, scopolamine 2.5 mg/kg i.p., listed as SEQ ID NO 1
  Mean Transfer Latency Time: 85.26 ± 6.52 s
Swiss albino mice; G5: 0.25 mg/kg i.v. qdx14, compared with G2 (scopolamine)
  % increase in Transfer Latency Time: 29.4%
Swiss albino mice; G5: 0.25 mg/kg i.v. qdx14, scopolamine 2.5 mg/kg i.p.
  Mean Transfer Latency Time: 80.58 s
Swiss albino mice; G5: 0.25 mg/kg i.v. qdx14, scopolamine 2.5 mg/kg i.p., listed as SEQ ID NO 1
  Mean Transfer Latency Time: 80.58 ± 9.08 s
Swiss albino mice; G6: 0.125 mg/kg i.v. qdx14, compared with G2 (scopolamine)
  % increase in Transfer Latency Time: 24.9%
Swiss albino mice; G6: 0.125 mg/kg i.v. qdx14, scopolamine 2.5 mg/kg i.p.
  Mean Transfer Latency Time: 75.81 s
Swiss albino mice; G6: 0.125 mg/kg i.v. qdx14, scopolamine 2.5 mg/kg i.p., listed as SEQ ID NO 1
  Mean Transfer Latency Time: 75.81 ± 7.75 s
Neuronal cells (pc12); 0.001 μg/ml
  % Protection in formation of Neurites (w.r.t. MPP+): 7.3%
  Average No. of Neurites: 21
Neuronal cells (pc12); 0.01 μg/ml
  % Protection in formation of Neurites (w.r.t. MPP+): 43.6%
  Average No. of Neurites: 28
Neuronal cells (pc12); 0.1 μg/ml
  % Protection in formation of Neurites (w.r.t. MPP+): 76.4%
  Average No. of Neurites: 34
Neuronal cells (pc12); 1 μg/ml
  % Protection in formation of Neurites (w.r.t. MPP+): 78.2%
  Average No. of Neurites: 34
Neuronal cells (pc12); 5 μg/ml
  % Protection in formation of Neurites (w.r.t. MPP+): 58.2%
  Average No. of Neurites: 30
SH-SY5Y neuronal cells; 0.001 μg/mL
  % Apoptotic cells (Anenxin + ve): 1.8%
  % Decrease in Apoptotic cells (wrt MPP + iodide): 56.8%
SH-SY5Y neuronal cells; 0.01 μg/mL
  % Apoptotic cells (Anenxin + ve): 1.2%
  % Decrease in Apoptotic cells (wrt MPP + iodide): 70.4%
SH-SY5Y neuronal cells; 0.05 μg/mL
  % Apoptotic cells (Anenxin + ve): 2.6%
  % Decrease in Apoptotic cells (wrt MPP + iodide): 35.8%
SH-SY5Y neuronal cells; 0.1 μg/mL
  % Apoptotic cells (Anenxin + ve): 3.1%
  % Decrease in Apoptotic cells (wrt MPP + iodide): 23.5%
SH-SY5Y neuronal cells; 1 μg/mL
  % Apoptotic cells (Anenxin + ve): 2.3%
  % Decrease in Apoptotic cells (wrt MPP + iodide): 43.2%
Acetylcholinesterase; 0.5 mg/kg pretreatment
  effect on scopolamine-increased AChE activity in the brain: significantly (p<0.001) attenuated
Acetylcholinesterase; G4: 0.5 mg/kg i.v. qdx14
  brain Acetylcholine esterase Mean: 4.47 mU/ml
Acetylcholinesterase; G5: 0.25 mg/kg i.v. qdx14
  brain Acetylcholine esterase Mean: 6.27 mU/ml
Acetylcholinesterase; G6: 0.125 mg/kg i.v. qdx14
  brain Acetylcholine esterase Mean: 6.59 mU/ml
TNF alpha; G4: 0.5 mg/kg i.v. qdx14
  brain TNF-alpha Mean: 121.7 pg/mL and 121.73 pg/mL
TNF alpha; G5: 0.25 mg/kg i.v. qdx14
  brain TNF-alpha Mean: 67.65 pg/mL
TNF alpha; G6: 0.125 mg/kg i.v. qdx14
  brain TNF-alpha Mean: 79.53 pg/mL
